The target of one experiment is T1, BST-1 (Homo sapiens, UniProt Q10588).
T1 construct: made in house; host or cells: baculovirus (pVL1393); virus made in Sf9, protein expressed in High five insect cells
T1 sequence (Q10588 33-297): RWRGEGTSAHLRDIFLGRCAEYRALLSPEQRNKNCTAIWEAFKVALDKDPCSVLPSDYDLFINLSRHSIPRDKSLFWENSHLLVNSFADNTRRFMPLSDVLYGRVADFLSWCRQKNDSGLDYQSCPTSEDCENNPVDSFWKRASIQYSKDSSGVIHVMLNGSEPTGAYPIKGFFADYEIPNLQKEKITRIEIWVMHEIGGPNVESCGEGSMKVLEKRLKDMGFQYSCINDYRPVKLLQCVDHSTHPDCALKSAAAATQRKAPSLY
The experiment in a line: Inhibition of ADP-ribosyl cyclase activity of BST-1 (NGD method). It counts as biochemical. As to conditions: DTT 10 mM. The text has this:
The fact that the peptide thus obtained inhibits ADP-ribosyl cyclase activity of BST-1 may be identified by comparing the ADP-ribosyl cyclase activity when measured in the absence of the peptide with the activity in the presence of the peptide. As previously mentioned, NAD is converted to cADP-ribose by ADP-ribosyl cyclase activity of BST-1, and therefore, the activity may be measured by allowing to react NAD with BST-1 and then quantitatively determining NAD and cADP-ribose after separation of them by anion-exchange chromatography (FEBS letters, 356, 244, 1994). Alternatively, nicotinamide guanine dinucleotide (NGD) may be used as a substrate instead of NAD, which is converted to cyclic guanosine-5′-diphosphate-ribose cGDP-ribose that can be fluorimetrically measured with an excitation wavelength of 300 nm and an emission wavelength of 410 nm, whereby the velocity of the formation of cGDP-ribose reflects ADP-ribosyl cyclase activity (J. Biol. Chem., […], 30260, 1994).
The abscissa is time course and the ordinate is fluorescence intensity. Purified BST-1 (4 μg/ml) was mixed with NGD (300 μM), and the mixture was allowed to react at 25° C. for 300 seconds, and then the synthetic peptide SNP-1 was added thereto at the concentration of 20 μM.
Inhibition of ADP-ribosyl cyclase activity of BST-1 by synthetic peptides was tested by means of the NGD method previously mentioned. […]

A further experiment addresses T2, bovine serum albumin (bovine, UniProt P02769 25-607).
T2 construct: also called BSA
Kind of experiment: phage ELISA, well coated with BSA alone. Background: In an ELISA, binding on a coated surface is turned into a signal by an enzyme label.

In experiment [1] the target is T3, soluble human bone marrow stromal cell antigen-1 (BST-1) (human, UniProt Q10588 33-297).
T3 construct: range 1-297; Expressed with baculovirus in High five insect cells, purified to 95% or more; The construct encodes codons 1-297; also called purified BST-1; soluble BST-1
T3 sequence (looked up): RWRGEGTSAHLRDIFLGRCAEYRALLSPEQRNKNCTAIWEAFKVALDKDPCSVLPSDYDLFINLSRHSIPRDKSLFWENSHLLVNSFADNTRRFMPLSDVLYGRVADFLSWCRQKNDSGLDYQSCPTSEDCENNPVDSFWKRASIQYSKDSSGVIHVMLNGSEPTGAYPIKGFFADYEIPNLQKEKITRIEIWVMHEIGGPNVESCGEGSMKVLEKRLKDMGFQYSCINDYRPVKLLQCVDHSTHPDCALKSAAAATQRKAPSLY
The experiment in a line: Biacore SPR, BST-1 amine-coupled on CM5, equilibrium values at 400-2000 nM peptide, Scatchard plot. The protocol:
BST-1 was immobilized at 2800 resonance unit (RU) on the sensor chip CM5 of a bio-sensor for analyzing protein interactions, BIACORE (Biacore K.K.), by means of an amine coupling method. The synthetic peptides were passed through the sensor chip at the flow rate of 40 µl/min at the concentration of from 400 nM to 2000 nM. Equilibrium binding value was obtained for each concentration. Based on the equilibrium binding values, dissociation constants were calculated by means of Scatchard plot method (Hulme E. C.; Receptor-binding studies, a brief outline, in Receptor Biochemistry: A Practical Approach, 303–315, IRL press, 1990).
In general terms: SPR reads the build-up and loss of mass on a sensor chip optically.

Where no end group is shown, it is not given here. The star is where a group is joined. Biotin = O=C1N[C@H]2[C@H](CS[C@H]2CCCCC(=O)*)N1

T2 sequence (P02769 25-607 limits assumed): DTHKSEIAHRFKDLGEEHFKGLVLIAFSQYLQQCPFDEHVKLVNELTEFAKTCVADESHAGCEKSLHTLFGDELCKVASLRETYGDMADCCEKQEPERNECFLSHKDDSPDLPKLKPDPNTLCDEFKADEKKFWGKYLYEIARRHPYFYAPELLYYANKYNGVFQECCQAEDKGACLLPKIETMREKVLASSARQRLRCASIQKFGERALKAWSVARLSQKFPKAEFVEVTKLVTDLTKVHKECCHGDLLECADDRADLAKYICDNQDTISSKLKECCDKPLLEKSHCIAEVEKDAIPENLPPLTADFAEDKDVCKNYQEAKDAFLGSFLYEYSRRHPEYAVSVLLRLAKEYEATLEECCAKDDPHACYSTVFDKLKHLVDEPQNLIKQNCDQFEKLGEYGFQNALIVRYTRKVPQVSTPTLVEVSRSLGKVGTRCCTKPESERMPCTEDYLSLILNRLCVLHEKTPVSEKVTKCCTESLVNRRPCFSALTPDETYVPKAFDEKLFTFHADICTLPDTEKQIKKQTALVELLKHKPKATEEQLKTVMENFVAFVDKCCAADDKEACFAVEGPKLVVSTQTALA

With `O[C@@H](CS)[C@@H](O)CS` [DTT], the “ADP-ribosyl cyclase activity of BST-1 after addition of reducing agent” value at BST-1 is listed as “complete disappearance”.

B1: phage SN-1 (phage expressing the peptide defined by SEQ ID NO: 1) (peptide)
peptide: HSQISGKYQRYLKDA
notes: not shown: phage coat protein of the Fuse 5 vector to which the peptide is fused; not specified
Regarding B1, the binding result with bovine serum albumin was “no binding”.

B2: synthetic peptide SNP-1 (peptide)
peptide: HSQISGKYQRYLKDA
notes: 15-residue synthetic peptide, purity 95% or more; also called prototype SNP-1; original SNP-1
What is called Kd is the constant that tells how readily two partners part at equilibrium. A high value points to weaker binding. In turn, B2 returned a Kd in experiment [1] of 510 nM. In other words, the sub-micromolar range.

B3: SNPb-1 (SNP-1 with an additional C-terminal Lys carrying biotin) (peptide)
peptide: HSQISGKYQRYLKDAK(Biotin)
The molecule B3 showed a Kd in experiment [1] of 810 nM. This Kd is about 1.6-fold higher than that of the molecule before.

B4: phage SN-16 (phage expressing the peptide defined by SEQ ID NO: 2) (peptide)
peptide: DDVVYTNIHKWGRRE
notes: as for B1
In the case of B4, in the experiment with bovine serum albumin, the binding result is given as “no binding”.

B5: bSNP-1 (SNP-1 biotinylated at the N-terminal) (peptide)
peptide: {Sulfo‑NHS‑LC‑Biotin}-HSQISGKYQRYLKDA
In experiment [1], B5 returned a Kd of 530 nM.

The record behind these values is patent publication US6414113B1, “Peptides binding to bone marrow stromal cell antigen” (Biomolecular Engineering Research Institute, priority 1998, dated 2002).
